This assay addresses RTX751 (Bordetella pertussis adenylate cyclase toxin, ACT, residues 751-1,706) (Bordetella pertussis, UniProt P0DKX7). Description: […], room temperature 20 min; […]; 20 mM Tris pH 7.5, 150 mM NaCl, 1 mM CaCl2, 1 mM MgCl2; […]. The note with it: both partners purified.

One may read the stoichiometry N as the number of molecules, sites or subunits per partner or assembly.

B1: M1F5 Fab (anti-ACT RTX domain antibody M1F5) (Fab, V domains shown)
VH: QVQLKQSGPELVKPGASVRMSCKGSGYSFTFHNIHWVKQRPGQGLEWIGWIYPGDGNTKYNEKFKGKTTLTVDKSSNTAYMLLSSLTSEDSAIYFCAYGNYYFDQWGQGTTLTVSS
VL: IQMMQSTSSLSASLGDRVTISCSASQGITNYLNWYQQKPDGTVKLLIYYTSSLHSGVPSRFSGSGSGTDYSLTISNLEPEDIATYYCQQYSNLPWTFGGGTKLEIK
notes: also called M1F5 antibody; M1F5 IgG
As to B1, the “stoichiometry N” value worked out at 1.

(Values after article PMC9416875, “Structural basis for non-canonical integrin engagement by Bordetella adenylate cyclase toxin” (Cell reports, 2022).)
